This data set deals with the molecule itself. Nature of the data set: cryo-EM structure; single particle analysis; apoferritin at 2.5 µM in 150 mM NaCl, 25 mM Tris pH 7.5, 2 mM DTT; 91,000 particles; X-ray model PDB 6RJH fitted into the map.

B1: Horse spleen apoferritin (natural protein)
chain: SQIRQNYSTEVEAAVNRLVNLYLRASYTYLSLGFYFDRDDVALEGVCHFFRELAEEKREGAERLLKMQNQRGGRALFQDLQKPSQDEWGTTLDAMKAAIVLEKSLNQALLDLHALGSAQADPHLCDFLESHFLDEEVKLIKKMGDHLTNIQRLVGSQAGLGEYLFERLTLK
notes: horse spleen apoferritin; the X-ray model of horse spleen apoferritin (PDB 6RJH) was fitted into the map; source: bought: Sigma (9013-31-4), purified by gel filtration (Superdex 200 Increase 3.2/300) immediately before vitrification
B1: the binding result is reported as “binds”.

(Values after PMC9142589, “Automated vitrification of cryo-EM samples with controllable sample thickness using suction and real-time optical inspection” (Nature Communications, 2022).)
